Data on three molecules can be found in PMC3637229, “Differential Translation of Dazap1 Transcripts during Spermatogenesis”.

Data set [1] deals with T1, His-DAZL (Mus musculus, UniProt Q64368 1-298).
T1 sequence: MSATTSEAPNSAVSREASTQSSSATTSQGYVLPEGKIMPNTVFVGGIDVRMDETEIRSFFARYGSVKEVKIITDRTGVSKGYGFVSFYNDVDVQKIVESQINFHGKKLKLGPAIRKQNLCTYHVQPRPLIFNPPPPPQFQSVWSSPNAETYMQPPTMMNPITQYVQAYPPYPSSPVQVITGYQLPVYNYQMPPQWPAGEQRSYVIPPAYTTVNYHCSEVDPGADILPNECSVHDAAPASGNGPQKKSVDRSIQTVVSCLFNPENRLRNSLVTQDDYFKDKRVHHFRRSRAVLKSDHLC
Description: EMSA; heparin, yeast tRNA; EMSA: 1 ug DAZL in 10 ul, 20 mM Tris pH 7.4, 2.5 mM MgCl2, 60 mM KCl, 1 mM DTT, 5% glycerol, RT, then 5 mg/ml heparin + 0.5 mg/ml yeast tRNA; pull-down: 20 mM Tris-HCl pH 7.4, 2.5 mM MgCl2, 120 mM KCl, 1 mM DTT, 5% glycerol, RT, 5 mg/ml heparin. Conditions: protein: recombinant; tags: His (pET-28a); label: 32P (gel shift). A general note: A gel shift assay detects complexes by their altered migration in electrophoresis.

In data set [2] the target is T1, His-DAZL. The experiment in a line: competition; cold C_40 1, 5, 10 ng vs labeled CU_40; EMSA: 1 ug DAZL in 10 ul, 20 mM Tris pH 7.4, 2.5 mM MgCl2, 60 mM KCl, 1 mM DTT, 5% glycerol, RT, then 5 mg/ml heparin + 0.5 mg/ml yeast tRNA; pull-down: 20 mM Tris-HCl pH 7.4, 2.5 mM MgCl2, 120 mM KCl, 1 mM DTT, 5% glycerol, RT, 5 mg/ml heparin. As to conditions: protein: recombinant; tags: His (pET-28a).

For the molecule AGGUUUCUUUUUCUUCUUCCUUUUUUUUCCUUUUUUUGAG (ssRNA) [CU_40], in the data set with His-DAZL [1], the binding result is “binds”.

Take AGGGUUUAAAAAACGCCUUCAGCUUUAAUUCAGAAUUUCAGGU (ssRNA) [C_40]: in the data set with His-DAZL [2], the binding result is listed as “no binding”.

B1: Dazap1 3'UTR C region (ssRNA)
RNA: AGGGUUUAAAAAACGCCUUCAGCUUUAAUUCAGAAUUUCAGGUUUCUUUUUCUUCUUCCUUUUUUUUCCUUUUUUUGAGAUUAUUUUCUUGAGCCUUUUGUUUUAUGGUAUAUUGUAAACUUUUAUGUUAAAGAAAAAAUAUACAUUUACAAAUUGUGAGAUUUUUAAGAGAAAUUUUCUACAAUGUAUACUGGCUUAUUUUUUAAUUUAAAGCAGGGUUCGGGUG
Regarding B1, the binding result with His-DAZL [1] is “binds”.
